From patent US20250002600A1 (Genmab, published 2025) come the findings set out here.

Experiment [1] concerns the target T1, human FcγRIa transiently expressed on CHO-S cells (human, UniProt P12314 16-374).
T1 construct: whole, on cells; also called cell surface expressed FcγRIa
Briefly: flow cytometry on CHO-S cells transiently expressing human FcγRIa, PE-conjugated goat anti-human IgG F(ab')2, % PE+ cells. (In general: In flow cytometry, cells or beads pass a laser one at a time.)
Procedure: Cells were centrifuged, supernatant was removed, and cells (30,000 cells in 50 μL) were incubated with 50 μL of the antibody dilutions for 30 min at 4° C. Cells were washed twice with GMB FACS buffer and incubated with 50 μL secondary antibody (PE-conjugated goat-anti-human IgG F(ab′)2; 1:500) for 30 min at 4° C., protected from light. Cells were washed twice with GMB FACS buffer and resuspended in GMB FACS buffer supplemented with 2 mM EDTA and DAPI viability marker (1:5,000). Antibody binding to viable cells was analyzed by flow cytometry on an Intellicyt iQue PLUS Screener (Intellicyt Corporation) using FlowJo software by gating on PE-positive, DAPI-negative cells. Binding curves were analyzed using non-linear regression analysis (four-parameter dose-response curve fits) in GraphPad Prism.

In experiment [2] the target is human PD-1 expressed on reporter Jurkat T cells (PD-1 Effector Cells) (human, UniProt Q15116 25-288). Briefly: cell-based or functional assay.

Where “and” joins values, the source holds several entries; their conditions need not be identical. Equal entries are not always repeated.

Sequence of human PD-1 expressed on reporter Jurkat T cells (PD-1 Effector Cells) (Q15116 25-288): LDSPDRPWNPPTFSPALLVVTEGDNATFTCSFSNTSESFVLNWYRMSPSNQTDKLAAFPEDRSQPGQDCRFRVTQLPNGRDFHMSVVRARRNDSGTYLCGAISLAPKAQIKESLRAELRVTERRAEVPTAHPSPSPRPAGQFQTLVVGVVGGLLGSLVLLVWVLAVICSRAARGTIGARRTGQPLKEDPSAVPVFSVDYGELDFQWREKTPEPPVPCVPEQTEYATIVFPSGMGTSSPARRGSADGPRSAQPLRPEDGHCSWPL
T1 sequence (P12314 16-374): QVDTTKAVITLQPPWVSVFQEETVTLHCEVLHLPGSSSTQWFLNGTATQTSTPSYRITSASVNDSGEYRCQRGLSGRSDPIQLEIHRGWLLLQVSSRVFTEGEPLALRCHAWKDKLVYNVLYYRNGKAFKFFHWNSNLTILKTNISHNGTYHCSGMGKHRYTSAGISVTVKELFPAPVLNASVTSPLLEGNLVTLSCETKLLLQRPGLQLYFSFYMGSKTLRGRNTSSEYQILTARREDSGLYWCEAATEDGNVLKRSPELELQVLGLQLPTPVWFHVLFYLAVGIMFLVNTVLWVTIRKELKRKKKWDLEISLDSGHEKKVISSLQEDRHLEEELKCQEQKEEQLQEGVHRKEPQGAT

B1: IgG1-ctrl (antibody)
heavy: not shown
light: EIVLTQSPGTLSLSPGERATFSCRSSHSIRSRRVAWYQHKPGQAPRLVIHGVSNRASGISDRFSGSGSGTDFTLTITRVEPEDFALYYCQVYGASSYTFGQGTKLERKRTVAAPSVFIFPPSDEQLKSGTASVVCLLNNFYPREAKVQWKVDNALQSGNSQESVTEQDSKDSTYSLSSTLTLSKADYEKHKVYACEVTHQGLSSPVTKSFNRGEC
notes: also called IgG1-b12 with wild-type Fc region
As usually defined, the EC50 (read off the curve) is the concentration at which the effect is half-maximal. Lower therefore signals an effect from little substance. As for B1, the “EC50 (read off the curve)” value in experiment [1] is roughly 0.01 µg/mL.

B2: IgG1-PD1 (antibody)
heavy: QVQLVESGGGLVQPGTSLRLSCSVSGFSLYSYNMGWVRQAPGKGLEYIGIISGGTIGHYASWAKGRFTISRDTSKTTLYLQMNSLTTEDTATYFCARAFYDDYDYNVWGPGTLVTVSSASTKGPSVFPLAPSSKSTSGGTAALGCLVKDYFPEPVTVSWNSGALTSGVHTFPAVLQSSGLYSLSSVVTVPSSSLGTQTYICNVNHKPSNTKVDKRVEPKSCDKTHTCPPCPAPEFERGPSVFLFPPKPKDTLMISRTPEVTCVVVDVSHEDPEVKFNWYVDGVEVHNAKTKPREEQYNSTYRVVSVLTVLHQDWLNGKEYKCKVSNKALPAPIEKTISKAKGQPREPQVYTLPPSREEMTKNQVSLTCLVKGFYPSDIAVEWESNGQPENNYKTTPPVLDSDGSFFLYSKLTVDKSRWQQGNVFSCSVMHEALHNHYTQKSLSLSPG
light: AIQLTQSPSSLSASVGGTVTITCQSSQSVYGNNQLSWYQQKPGQPPKLLIYQASKLETGVPSRFRGSGSGTQFTLTISSLQSEDFATYYCAGGYSSSSDTTFGGGTEVVVKRTVAAPSVFIFPPSDEQLKSGTASVVCLLNNFYPREAKVQWKVDNALQSGNSQESVTEQDSKDSTYSLSSTLTLSKADYEKHKVYACEVTHQGLSSPVTKSFNRGEC
B2: the “EC50 of PD-1/PD-L1 checkpoint blockade (luminescence, reporter assay)” value in experiment [2] is 0.165 µg/mL and 1.12 nM.
